Biological target: Daedalus-expressed CARMA-CARD (N-terminal CARD domain of human CARMA1, Asp2-Thr104) (human)
Assay: SEC

**Q.** “Daedalus-expressed CARMA-CARD (N-terminal CARD domain of human CARMA1, Asp2-Thr104) (domain or fragment)” was tested. Which stoichiometry N did it give?
**A.** The stoichiometry N was 2.

— PMC3241668
